In paper doi:10.1101/2024.12.03.626679, “Structure of the SMYD2-PARP1 Complex Reveals Both Productive and Allosteric Modes of Peptide Binding” (bioRxiv, 2024):

Tests used:
SMYD2-F184A (human) [1] = target: SMYD2-F184A (human) (UniProt Q9NRG4); assay: ELISA; inhibition: SMYD2 proteins pre-incubated with varying concentrations of the PARP1 peptide, then added to wells coated with PARP1(518-1014), H3 or H4; four-parameter logistic fit
SMYD2-F184A (human) [2] = target: SMYD2-F184A (human) (UniProt Q9NRG4); assay: ITC; NanoITC SV, 27°C, 25 mM Tris pH 7.5, 50 mM NaCl; 40 μM SMYD2 in the cell, 631 μM PARP1 peptide in the syringe, 16 injections of 15 μL; one-site, two-site and binding polynomial models

SMYD2-F184A (human), sequence (Q9NRG4 whole entry F184A): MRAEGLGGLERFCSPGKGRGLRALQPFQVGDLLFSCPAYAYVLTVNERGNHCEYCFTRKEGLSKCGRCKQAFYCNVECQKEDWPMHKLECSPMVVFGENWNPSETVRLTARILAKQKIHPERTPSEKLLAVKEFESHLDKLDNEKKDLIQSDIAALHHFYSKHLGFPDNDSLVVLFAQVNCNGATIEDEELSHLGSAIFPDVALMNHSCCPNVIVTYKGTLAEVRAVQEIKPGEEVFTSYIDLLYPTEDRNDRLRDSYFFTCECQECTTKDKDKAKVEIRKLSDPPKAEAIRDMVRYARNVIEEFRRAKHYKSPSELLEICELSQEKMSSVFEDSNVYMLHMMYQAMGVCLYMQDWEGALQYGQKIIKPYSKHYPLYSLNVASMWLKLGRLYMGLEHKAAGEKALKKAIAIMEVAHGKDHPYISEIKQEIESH

“PARP1 peptide (13-residue synthetic peptide, human PARP1 residues 522-534)” was tested, and the IC50 (SMYD2-F184A (human) [1]) was 153 nM and the stoichiometry N (SMYD2-F184A (human) [2]) was 1.
